Assay results published in patent US20150064134A1.

Assays:
Assay in all cases: cell-based or functional assay
Abl(Q252H)(h) (human) = Abl(Q252H)(h) (human) (UniProt P00519)
Flt1(h) (human) = target: T1, Flt1(h) (human) (UniProt P17948)
T1 sequence (looked up): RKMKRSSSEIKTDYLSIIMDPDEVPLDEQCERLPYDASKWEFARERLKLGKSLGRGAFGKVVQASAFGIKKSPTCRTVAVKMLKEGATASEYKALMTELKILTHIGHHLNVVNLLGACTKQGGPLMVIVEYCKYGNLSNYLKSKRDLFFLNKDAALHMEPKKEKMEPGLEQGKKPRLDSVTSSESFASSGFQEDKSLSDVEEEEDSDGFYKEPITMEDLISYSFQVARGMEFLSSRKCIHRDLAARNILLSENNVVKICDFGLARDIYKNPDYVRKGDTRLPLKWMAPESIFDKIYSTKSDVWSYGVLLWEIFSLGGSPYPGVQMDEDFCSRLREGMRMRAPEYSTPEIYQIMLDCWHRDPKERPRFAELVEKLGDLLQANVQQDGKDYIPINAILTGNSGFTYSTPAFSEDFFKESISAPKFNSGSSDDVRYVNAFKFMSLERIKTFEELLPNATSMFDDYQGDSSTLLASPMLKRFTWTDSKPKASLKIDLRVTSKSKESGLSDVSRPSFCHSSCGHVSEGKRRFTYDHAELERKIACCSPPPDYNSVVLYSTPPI

MARK1(h) (human) = MARK1(h) (human) (UniProt Q9P0L2)
Met(D1246H)(h) (human) = Met(D1246H)(h) (human) (UniProt P08581)
NEK3(h) (human) = target: T2, NEK3(h) (human) (UniProt P51956)
T2 sequence (looked up): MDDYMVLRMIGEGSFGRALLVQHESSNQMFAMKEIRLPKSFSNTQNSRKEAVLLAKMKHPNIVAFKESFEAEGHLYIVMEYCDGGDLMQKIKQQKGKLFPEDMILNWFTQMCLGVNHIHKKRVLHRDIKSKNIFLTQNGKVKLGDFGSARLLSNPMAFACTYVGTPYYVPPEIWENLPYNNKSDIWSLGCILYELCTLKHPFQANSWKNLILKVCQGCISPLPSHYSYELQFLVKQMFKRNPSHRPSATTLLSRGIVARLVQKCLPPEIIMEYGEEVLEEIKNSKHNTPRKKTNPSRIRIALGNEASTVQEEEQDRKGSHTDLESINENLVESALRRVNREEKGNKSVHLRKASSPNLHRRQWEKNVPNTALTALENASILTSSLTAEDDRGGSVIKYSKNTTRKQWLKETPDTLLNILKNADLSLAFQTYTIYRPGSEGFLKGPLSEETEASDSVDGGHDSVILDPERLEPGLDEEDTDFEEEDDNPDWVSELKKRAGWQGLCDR

PAK4(h) (human) = PAK4(h) (human) (UniProt O96013)
PhKγ2(h) (human) = target: T3, PhKγ2(h) (human) (UniProt P15735)
T3 sequence (looked up): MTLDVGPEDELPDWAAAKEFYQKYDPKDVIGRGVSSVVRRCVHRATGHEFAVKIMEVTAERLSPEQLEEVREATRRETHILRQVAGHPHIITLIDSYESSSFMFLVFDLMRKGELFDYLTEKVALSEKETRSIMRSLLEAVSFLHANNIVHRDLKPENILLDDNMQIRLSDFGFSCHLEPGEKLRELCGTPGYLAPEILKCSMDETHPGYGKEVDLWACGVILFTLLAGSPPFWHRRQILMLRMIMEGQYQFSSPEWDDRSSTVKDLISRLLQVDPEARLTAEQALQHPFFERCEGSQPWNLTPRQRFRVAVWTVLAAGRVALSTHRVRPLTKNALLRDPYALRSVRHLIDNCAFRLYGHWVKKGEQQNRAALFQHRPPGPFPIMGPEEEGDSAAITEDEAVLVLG

Pim-3(h) (human) = Pim-3(h) (human) (UniProt Q86V86)
Ret(V804L)(h) (human) = target: T4, Ret(V804L)(h) (human) (UniProt P07949)
T4 sequence (looked up): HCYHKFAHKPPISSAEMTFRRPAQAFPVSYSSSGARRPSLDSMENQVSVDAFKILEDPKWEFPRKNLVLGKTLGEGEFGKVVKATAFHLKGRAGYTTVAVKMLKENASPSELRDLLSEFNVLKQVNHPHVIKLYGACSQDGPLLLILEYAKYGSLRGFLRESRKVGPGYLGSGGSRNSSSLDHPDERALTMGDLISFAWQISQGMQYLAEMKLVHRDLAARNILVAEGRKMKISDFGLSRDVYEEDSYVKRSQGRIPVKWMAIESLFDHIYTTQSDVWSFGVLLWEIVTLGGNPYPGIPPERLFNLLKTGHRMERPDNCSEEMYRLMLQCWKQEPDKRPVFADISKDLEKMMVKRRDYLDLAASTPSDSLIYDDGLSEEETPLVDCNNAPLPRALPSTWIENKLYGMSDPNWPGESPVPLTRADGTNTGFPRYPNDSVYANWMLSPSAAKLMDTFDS

TAO2(h) (human) = target: T5, TAO2(h) (human) (UniProt Q9UL54)
T5 sequence (looked up): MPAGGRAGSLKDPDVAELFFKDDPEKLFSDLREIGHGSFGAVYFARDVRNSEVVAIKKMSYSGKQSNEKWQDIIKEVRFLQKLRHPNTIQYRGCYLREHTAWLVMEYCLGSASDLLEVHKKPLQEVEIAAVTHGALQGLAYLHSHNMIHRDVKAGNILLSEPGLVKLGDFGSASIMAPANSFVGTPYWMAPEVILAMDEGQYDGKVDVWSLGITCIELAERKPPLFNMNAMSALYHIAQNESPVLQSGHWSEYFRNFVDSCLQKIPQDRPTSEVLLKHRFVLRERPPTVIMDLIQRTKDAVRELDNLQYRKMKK

Chain of Abl(Q252H)(h) (human) (P00519 27-1130 Q252H limits assumed): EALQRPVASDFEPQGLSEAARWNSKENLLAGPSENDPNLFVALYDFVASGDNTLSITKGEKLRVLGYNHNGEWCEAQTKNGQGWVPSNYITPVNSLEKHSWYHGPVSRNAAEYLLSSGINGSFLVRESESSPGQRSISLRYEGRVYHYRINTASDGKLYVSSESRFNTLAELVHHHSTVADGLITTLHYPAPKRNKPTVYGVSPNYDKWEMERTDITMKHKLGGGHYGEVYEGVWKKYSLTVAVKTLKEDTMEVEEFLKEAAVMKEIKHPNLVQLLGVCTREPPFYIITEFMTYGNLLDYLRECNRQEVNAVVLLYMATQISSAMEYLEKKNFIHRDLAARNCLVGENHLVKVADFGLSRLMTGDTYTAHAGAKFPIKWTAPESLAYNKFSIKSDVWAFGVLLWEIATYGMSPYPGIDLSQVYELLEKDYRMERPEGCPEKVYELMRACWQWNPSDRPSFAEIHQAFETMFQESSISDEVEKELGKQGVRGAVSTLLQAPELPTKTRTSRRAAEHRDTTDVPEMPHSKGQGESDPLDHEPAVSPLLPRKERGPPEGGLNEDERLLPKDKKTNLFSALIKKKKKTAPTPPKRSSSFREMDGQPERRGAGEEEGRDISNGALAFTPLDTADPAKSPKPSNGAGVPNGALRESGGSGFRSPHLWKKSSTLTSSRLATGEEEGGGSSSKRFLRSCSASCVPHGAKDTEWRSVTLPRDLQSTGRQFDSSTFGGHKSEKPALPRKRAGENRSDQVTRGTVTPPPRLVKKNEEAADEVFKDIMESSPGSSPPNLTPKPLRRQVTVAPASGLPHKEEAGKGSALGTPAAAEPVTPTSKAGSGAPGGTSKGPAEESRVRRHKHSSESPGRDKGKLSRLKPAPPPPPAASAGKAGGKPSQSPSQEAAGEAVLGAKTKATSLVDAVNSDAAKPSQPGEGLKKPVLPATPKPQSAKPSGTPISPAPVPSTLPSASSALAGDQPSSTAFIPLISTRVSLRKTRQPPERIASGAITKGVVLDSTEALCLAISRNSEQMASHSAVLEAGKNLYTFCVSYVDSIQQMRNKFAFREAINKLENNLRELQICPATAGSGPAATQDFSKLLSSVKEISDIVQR

% activity at 100 µM (Abl(Q252H)(h) (human))	% activity at 100 µM (Flt1(h) (human))	% activity at 100 µM (MARK1(h) (human))	% activity at 100 µM (Met(D1246H)(h) (human))	% activity at 100 µM (NEK3(h) (human))	% activity at 100 µM (PAK4(h) (human))	% activity at 100 µM (PhKγ2(h) (human))	% activity at 100 µM (Pim-3(h) (human))	% activity at 100 µM (Ret(V804L)(h) (human))	% activity at 100 µM (TAO2(h) (human))	Substance
82%	69%	132%	125%	92%	94%	46%	80%	79%	70%	MMI-0300 (peptide)
98%	48%	120%	68%	85%	89%	38%	80%	73%	74%	MMI-0400 (peptide)
40%	27%	110%	150%	20%	86%	16%	37%	20%	15%	MMI-0500 (peptide)
